# The supplement of paper PMC10724198
# ± gives the standard deviation of the averaged measurements.
# Assays:
# Saccharomyces cerevisiae [1] = assay: protein stability index of tFT-peptide fusion (C-terminal peptide) (PSI (0-1 scale)); higher = more stable (slower turnover)
# Experimental: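 MPS profiling in S. cerevisiae of the tFT-X12 degron library: putative degron peptides plus stable controls, 12 aa, fused to the C-terminus of a sfGFP-mCherry timer. Cells are FACS-sorted into 8 mCherry/sfGFP bins and deep-sequenced. PSI runs from 0 (unstable) to 1 (stable). Backgrounds are wild type, das1Δ and doa10Δ at 30 °C, and wild type, das1Δ, cdc34-1 and cdc53-1 at 37 °C; 2-3 technical replicates each.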
# Saccharomyces cerevisiae [2] = assay: as above; conditions: genetic background: wild type; temperature: 30 C
# [3] = genetic background: cdc34-1, temperature: 37 C
# [4] = genetic background: cdc53-1, temperature: 37 C
# [5] = genetic background: das1 deletion, temperature: 30 C
# [6] = genetic background: das1 deletion, temperature: 37 C
# [7] = genetic background: doa10 deletion, temperature: 30 C
# [8] = genetic background: wild type, temperature: 30 C
# [9] = genetic background: wild type, temperature: 37 C
# 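Note: PSI is a weighted mean of sequencing reads over stability bins, variants kept only with over 10 reads, mCherry proximal and sfGFP distal, peptide attached via GGGS linker.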
Sequence,protein stability index (Saccharomyces cerevisiae [1]; [3]),protein stability index (Saccharomyces cerevisiae [1]; [4]),protein stability index (Saccharomyces cerevisiae [1]; [5]),protein stability index (Saccharomyces cerevisiae [1]; [6]),protein stability index (Saccharomyces cerevisiae [1]; [7]),protein stability index (Saccharomyces cerevisiae [1]; [8]),protein stability index (Saccharomyces cerevisiae [1]; [9]),protein stability index (Saccharomyces cerevisiae [2])
PPPLPPPSPSRP,0.66 ± 0.024,0.7072 ± 0.0012,0.677 ± 0.02,0.7025 ± 0.0061,0.695 ± 0.026,0.6727 ± 0.0031,0.68331 ± 0.00024,0.421 ± 0.0055
YLFDQYDWYKSM,0.643 ± 0.063,0.7663 ± 0.007,0.666 ± 0.041,0.8049 ± 0.0067,0.156 ± 0.0072,0.162 ± 0.027,0.348 ± 0.02,0.368 ± 0.081
PPPPPPLPSSFP,0.679 ± 0.024,0.749 ± 0.0084,0.645 ± 0.009,0.7094 ± 0.0028,0.666 ± 0.033,0.655 ± 0.01,0.7063 ± 0.0068,0.449 ± 0.026
FFLLLLRPPLVM,0.34 ± 0.035,0.363 ± 0.0046,0.275 ± 0.035,0.4464 ± 0.0041,0.276 ± 0.0029,0.267 ± 0.03,0.41225 ± 0.0001,0.374 ± 0.051
RGGPPPCPLLAA,0.68 ± 0.036,0.698 ± 0.032,0.585 ± 0.012,0.688 ± 0.0092,0.571 ± 0.035,0.584 ± 0.011,0.664 ± 0.013,0.51 ± 0.034
CGCLPYIGTKLC,0.463 ± 0.076,0.711 ± 0.026,0.647 ± 0.028,0.766 ± 0.013,0.087 ± 0.036,0.117 ± 0.018,0.106 ± 0.012,0.165 ± 0.0027
ISVRKTFLIVLC,0.331 ± 0.031,0.351 ± 0.018,0.266 ± 0.047,0.486 ± 0.01,0.152 ± 0.015,0.156 ± 0.013,0.279 ± 0.025,0.232 ± 0.022
CILVSVDVIVFF,0.0529 ± 0.014,0.147 ± 0.043,0.118 ± 0.051,0.207 ± 0.0033,0.103 ± 0.016,0.136 ± 0.026,0.166 ± 0.036,0.212 ± 0.005
TNHRVRHWILRV,0.665 ± 0.013,0.721 ± 0.0099,0.609 ± 0.024,0.713 ± 0.02,0.253 ± 0.022,0.301 ± 0.019,0.517 ± 0.0083,0.396 ± 0.031
FCALWLCFRLMV,0.35 ± 0.024,0.403 ± 0.014,0.319 ± 0.028,0.476 ± 0.03,0.14 ± 0.014,0.149 ± 0.017,0.265 ± 0.028,0.174 ± 0.037
VVLGLFCVRMGT,0.541 ± 0.018,0.606 ± 0.019,0.454 ± 0.031,0.6108 ± 0.0044,0.418 ± 0.01,0.451 ± 0.02,0.5718 ± 0.0034,0.522 ± 0.031
RYVFAFRRNYFC,0.448 ± 0.089,0.682 ± 0.0095,0.636 ± 0.018,0.744 ± 0.0096,0.171 ± 0.014,0.174 ± 0.026,0.299 ± 0.038,0.223 ± 0.015
VGLLFGWVWSLW,0.644 ± 0.02,0.72401 ± 0.00029,0.56 ± 0.026,0.6999 ± 0.0055,0.5556 ± 0.0007,0.545 ± 0.0096,0.674 ± 0.015,0.485 ± 0.021
SRFFSSSFYRLC,0.675 ± 0.036,0.7576 ± 0.0075,0.661 ± 0.012,0.777 ± 0.018,0.176 ± 0.0056,0.198 ± 0.036,0.485 ± 0.042,0.324 ± 0.046
FVLLCVLEFVAG,0.104 ± 0.027,0.166 ± 0.011,0.173 ± 0.025,0.299 ± 0.0013,0.131 ± 0.004,0.151 ± 0.036,0.253 ± 0.0087,0.27 ± 0.008
LPNLPPTSPERH,0.638 ± 0.0034,0.734 ± 0.015,0.652 ± 0.021,0.7046 ± 0.0062,0.6558 ± 0.0059,0.659 ± 0.015,0.703 ± 0.0097,0.663 ± 0.33
FILLTLVFGCAS,0.188 ± 0.0054,0.313 ± 0.025,0.228 ± 0.02,0.424 ± 0.0066,0.196 ± 0.0089,0.22 ± 0.035,0.375 ± 0.0071,0.309 ± 0.025
VVFRCSSFFCLV,0.54 ± 0.0062,0.6156 ± 0.006,0.524 ± 0.029,0.622 ± 0.015,0.387 ± 0.033,0.405 ± 0.035,0.536 ± 0.0083,0.4449 ± 0.002
RLVRILSTILLN,0.487 ± 0.079,0.638 ± 0.038,0.576 ± 0.028,0.703 ± 0.052,0.0769 ± 0.029,0.1 ± 0.014,0.0569 ± 0.034,0.177 ± 0.049
IRFFLIVFCFLR,0.157 ± 0.015,0.131 ± 0.017,0.251 ± 0.019,0.286 ± 0.041,0.273 ± 0.0057,0.203 ± 0.025,0.226 ± 0.022,0.284 ± 0.021
PLLVVPVPRALY,0.675 ± 0.082,0.72 ± 0.0074,0.626 ± 0.011,0.733 ± 0.018,0.242 ± 0.0057,0.281 ± 0.013,0.491 ± 0.038,0.382 ± 0.021
YRFVWRWIPICA,0.0342 ± 0.01,0.0919 ± 0.045,0.12 ± 0.038,0.116 ± 0.032,0.0307 ± 0.0093,0.038 ± 0.014,0.057 ± 0.026,0.0631 ± 0.022
